To fix the notation:
B1: PVEGFPMP42B10 (VHH)
VHH: EVQLVESGGGLVQAGGSLRLSCTASGRALDTYTVTWFRQTPGKEREFVASNRWNAKPYTTDSVKGRFTISRDNAKNTVYLQMNSLKPEDTAVYYCAADLTTWADGPYRYWGQGTQVTVSS
notes: tested as periplasmic extract; not shown: C-terminal c-myc tag and (His)6 tag from the vector
B2: PVEGFPMP42H5 (VHH)
VHH: B1 VHH with T59V
notes: as for B1
B3: PVEGFPMP42G5 (VHH)
VHH: B1 VHH with Q3H, T23A, E44T, N51V, L99P
notes: as for B1
B4: PVEGFPMP42F1 (VHH)
VHH: B1 VHH with A14P, T23A, E44T, N51V, L99P
notes: as for B1
B5: PVEGFPMP42C5 (VHH)
VHH: B1 VHH with E1K, T23A, N51I, V92I
notes: as for B1
B6: PVEGFPMP42E2 (VHH)
VHH: B1 VHH with T23A, E44G, V48L, N51I, I69M, K86R, L99P
notes: as for B1
B7: PVEGFPMP42E3 (VHH)
VHH: EVQLVESGGGLVQAGGALRLSCAASGRTFETYRMGWFRQAPGKEREFVALINWSSGTTIYADSVKGRFTISGDNAKDTVYLEMNSLKPEDTAVYYCAVGRRWSGSYYSALAYQYWGQGTQVTVSS
notes: as for B1
B8: PVEGFPMP42H9 (VHH)
VHH: B7 VHH with I59V
notes: as for B1
B9: PVEGFPMP42D7 (VHH)
VHH: B7 VHH with L20P, I59V
notes: as for B1
B10: PVEGFPMP42D10 (VHH)
VHH: B7 VHH with T57I, I59V, A61L, R101A
notes: as for B1
B11: PVEGFPMP42D5 (VHH)
VHH: B7 VHH with Q13H, T28A, I59V
notes: as for B1
B12: PVEGFPMP42E4 (VHH)
VHH: B7 VHH with V5M, A17S, A24V, T31S, A49S, T57K, R101A
notes: as for B1
B13: PVEGFPMP42C7 (VHH)
VHH: B7 VHH with Q117K
notes: as for B1
B14: PVEGFPMP42C10 (VHH)
VHH: B7 VHH with A24V, T31S, A49S, T57K, R101A
notes: as for B1
B15: PVEGFPMP42A5 (VHH)
VHH: EVQLVESGGGLVQAGGSLRLSCAASGRTFSGVDVAWFRQAPGKEREFVAALAWSGIRTYYAVSVKGRFTISRGDPNDTVYLQMTSLKPEDTAVYYCATGRASRTSDYYTDRIYDSWGQGAQVTVSS
notes: as for B1
B16: PVEGFPMP42A3 (VHH)
VHH: B15 VHH with Q3P, L4M
notes: as for B1
B17: PVEGFPMP42F10 (VHH)
VHH: B15 VHH with P41T
notes: as for B1
B18: PVEGFPMP42C1 (VHH)
VHH: B15 VHH with D74N, S102Y, T104G
notes: as for B1

Numbering of substitutions follows the chain as printed.

These results are taken from patent US20100120681A1 (Ablynx, published 2010).

What is called koff is a measure of how fast the partners let go of each other. A higher koff goes with a short-lived complex.

One experiment addresses T1, E. coli expressed VEGF109 (human, UniProt P15692 207-315).
T1 construct: also called hVEGF109
T1 sequence: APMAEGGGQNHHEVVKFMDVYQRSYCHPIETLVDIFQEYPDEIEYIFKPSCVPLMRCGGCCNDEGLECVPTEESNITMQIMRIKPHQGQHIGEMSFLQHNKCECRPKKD
Kind of experiment: SPR Biacore 3000, periplasmic extract over VEGF109-coated CM5 chip. As to the method: (§1) Analysis of the results was done using BIAevaluation software. Off-rates were determined by the ‘fit kinetics separate ka/kd’ model, langmuir dissociation. A time interval of ±100s was used for the fitting.
On the technique in general: SPR reads the build-up and loss of mass on a sensor chip optically.
As to B1, the dissociation rate constant (koff) turned out to be 0.000227 s⁻¹.

Molecule B2 returned an off-rate constant (koff) of 0.000315 s⁻¹.

For the molecule B3, the off-rate constant (koff) came to 0.000251 s⁻¹.

With B4, the koff stood at 0.000278 s⁻¹.

Molecule B5 yielded an off-rate (koff) of 0.000448 s⁻¹.

The molecule B6 yielded an off-rate constant (koff) of 0.000134 s⁻¹.

Consider B7, for which the koff is 0.000689 s⁻¹.

Molecule B8 registered a koff of 0.000315 s⁻¹.

B9 yielded an off-rate constant (koff) of 0.000176 s⁻¹.

As for B10, the koff was 0.00411 s⁻¹.

B11 showed a koff of 0.000368 s⁻¹.

B12 displayed an off-rate (koff) of 0.00774 s⁻¹.

In the case of B13, the koff turned out to be 0.00061 s⁻¹.

In turn, B14 returned a koff of 0.00753 s⁻¹.

B15 displayed a dissociation rate constant (koff) of 0.00167 s⁻¹.

B16 showed a koff of 0.00284 s⁻¹.

In turn, B17 showed a koff of 0.00176 s⁻¹.

For B18, the koff worked out at 0.00825 s⁻¹.

The next experiment deals with T2, hVEGF165 (R&D Systems) (human, UniProt P15692 27-191).
T2 construct: mature; also called biotinylated hVEGF165
T2 sequence (P15692 other isoform, or with tags, fused parts or gaps): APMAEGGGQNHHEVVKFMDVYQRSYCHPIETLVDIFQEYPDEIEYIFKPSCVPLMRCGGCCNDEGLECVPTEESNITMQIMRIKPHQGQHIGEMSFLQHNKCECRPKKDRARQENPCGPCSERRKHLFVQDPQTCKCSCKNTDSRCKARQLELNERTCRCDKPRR
Description: SPR Biacore 3000, periplasmic extract over VEGF165-coated CM5 chip. How it is done:
as §1
Take B1: the dissociation rate constant (koff) is 0.000362 s⁻¹.

The molecule B2 showed an off-rate constant (koff) of 0.000528 s⁻¹.

In turn, B3 gave a koff of 0.000447 s⁻¹.

Regarding B4, the off-rate constant (koff) stood at 0.000501 s⁻¹.

B5 displayed an off-rate (koff) of 0.000641 s⁻¹.

Molecule B6 displayed a dissociation rate constant (koff) of 0.000311 s⁻¹.

With B7, the koff was 0.0015 s⁻¹.

Regarding B8, the off-rate (koff) was 0.00149 s⁻¹.

As to B9, the off-rate constant (koff) was 0.00094 s⁻¹.

Take B10: the koff is 0.00634 s⁻¹.

Take B11: the koff came to 0.00147 s⁻¹.

The molecule B12 showed a dissociation rate constant (koff) of 0.02 s⁻¹.

In turn, B13 displayed a koff of 0.00151 s⁻¹.

B14 displayed a koff of 0.0168 s⁻¹.

In turn, B15 came in with a koff of 0.00154 s⁻¹.

Turning to B16, the koff came out at 0.00259 s⁻¹.

Take B17: the off-rate (koff) turned out to be 0.00165 s⁻¹.

B18: the koff worked out at 0.00835 s⁻¹.
